US20070092933A1 (AVIDIS, published 2007)

B1: DsbA (soluble DsbA of E. coli) (protein)
chain: AQYEDGKQYTTLEKPVAGAPQVLEFFSFFCPHCYQFEEVLHISDNVKKKLPEGVKMTKYHVNFMGGDLGKDLTQAWAVAMALGVEDKVTVPLFEGVQKTQTIRSASDIRDVFINAGIKGEEYDAAWNSFVVKSLVAQQEKAAADVQLRGVPAMFVNGKYQLNPQGMDTSNMDVFVQQYADTVKYLSEKK
B2: DsbA-C4bp fusion protein (human C4bp core fused to the C-terminus of the E. coli DsbA protein) (protein)
chain: AQYEDGKQYTTLEKPVAGAPQVLEFFSFFCPHCYQFEEVLHISDNVKKKLPEGVKMTKYHVNFMGGDLGKDLTQAWAVAMALGVEDKVTVPLFEGVQKTQTIRSASDIRDVFINAGIKGEEYDAAWNSFVVKSLVAQQEKAAADVQLRGVPAMFVNGKYQLNPQGMDTSNMDVFVQQYADTVKYLSEKKETPEGCEQVLTGKRLMQCLPNPEDVKMALEVYKLSLEIEQLELQRDSARQSTLDKEL
B3: db-C4bp fusion protein (downstream box peptide fused N-terminal to the 57 amino acid core domain of the human C4bp alpha chain) (other)
chain: MASMNHKGSETPEGCEQVLTGKRLMQCLPNPEDVKMALEVYKLSLEIEQLELQRDSARQSTLDKEL
notes: Expressed in the cytosol of E. coli C41(DE3); Predicted monomer size 7491.5 Da; Recovered as an oligomer of about 60-67 kDa by gel filtration, with disulphide bonds between the monomers; also called native db-C4bp; product of plasmid pAVD 77

Columns and labels:
[1] = biological target: the molecule itself; experiment: gel filtration (S75 26/60), self-association of monomers

Protein	increase of turbidity at 650 nm (insulin disulphide reduction assay) (insulin)	binding result [1]
B1	the activity is directly comparable to the activity of soluble DsbA	–
B2	the DsbA present in the DsbA-C4bp fusion protein is still active, and the activity is directly comparable to the activity of soluble DsbA	–
B3	–	binds
